Source: the supplement of paper PMC10598134
± gives the standard deviation.

Test: collision cross section of modified peptide (TIMS, N2, iRT-aligned); higher = larger / more extended gas-phase ion
Summary of the method: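 On a timsTOF Pro/HT (dda-PASEF, nitrogen, ~2.4 mbar), synthetic peptide pools were analysed after a 120-min nanoflow C18 separation at 60 °C and identified in MaxQuant. Three reference ions served for 1/K0 calibration, with run-wise alignment to the median iRT peptide deviation. Collision cross section comes from the Mason-Schamp equation, using the most abundant feature per charge state averaged over 1–3 technical replicates.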

[1] = charge state: 3, modification: Butyryl
[2] = charge state: 2, modification: Methyl (K)
[3] = charge state: 3, modification: Methyl (K)
[4] = charge state: 2, modification: Butyryl
[5] = charge state: 2, modification: hydroxyisobutyryl
[6] = charge state: 2, modification: Dimethyl (K)
[7] = charge state: 3, modification: Dimethyl (K)
[8] = charge state: 3, modification: Acetyl (K)
[9] = charge state: 2, modification: Phospho (Y)
[10] = charge state: 2, modification: Glutarylation
[11] = charge state: 3, modification: Glutarylation
[12] = charge state: 2, modification: Citrullination (R)
[13] = charge state: 2, modification: Malonyl
[14] = charge state: 2, modification: Succinyl
[15] = charge state: 2, modification: Acetyl (K)
[16] = charge state: 2, modification: Formyl
[17] = charge state: 3, modification: Formyl
[18] = charge state: 2, modification: GlyGly (K)
[19] = charge state: 3, modification: GlyGly (K)
[20] = charge state: 2, modification: Biotin
[21] = charge state: 2, modification: Nitro (Y)
[22] = charge state: 2, modification: Hydroxyproline
[23] = charge state: 3, modification: Hydroxyproline
[24] = charge state: 3, modification: Succinyl
[25] = charge state: 2, modification: Methyl (R)
[26] = charge state: 3, modification: Methyl (R)
[27] = charge state: 2, modification: Trimethyl (K)
[28] = charge state: 3, modification: Trimethyl (K)

Work on “SPPLPEHQKIPCNSAEPK [_SPPLPEHQK(Butyryl)IPCNSAEPK_]” yielded a collision cross section [1] of 542.36 ± 2 Å².

In the case of “TTGFYSGFSEVAEKR [_TTGFYSGFSEVAEK(Methyl (K))R_]”, the collision cross section [2] is reported as 449.23 ± 2.4 Å² and the collision cross section [3] is reported as 510.26 ± 2 Å².

With ISALQGKLSK [_ISALQGK(Butyryl)LSK_] the collision cross section [4] was 358.56 ± 1.2 Å².

For “LGVATVAKGVCGACK [_LGVATVAK(Methyl (K))GVCGACK_]”, the collision cross section [2] was 433.3 ± 0.37 Å² and the collision cross section [3] was 457.05 ± 3.9 Å².

With “LDEKENLSAK [_LDEK(hydroxyisobutyryl)ENLSAK_]” the collision cross section [5] was 373.33 ± 0.28 Å².

“SDDESSQKDIK [_SDDESSQK(Dimethyl (K))DIK_]” showed a collision cross section [6] of 372.77 ± 1.2 Å² and a collision cross section [7] of 434.93 ± 2.1 Å².

For “YEQEHAAIQDKLFQVAK [_YEQEHAAIQDK(Acetyl (K))LFQVAK_]”, the collision cross section [8] was 513.78 ± 1.6 Å².

For VYSGHQGR [_VY(Phospho (Y))SGHQGR_], the collision cross section [9] was 330.73 ± 0.068 Å² and the collision cross section (charge state: 3, modification: Phospho (Y)) was 415.14 ± 2.5 Å².

Sequence “VGTASVLQPVKK [_VGTASVLQPVK(Gluratylation)K_]” has a collision cross section [10] of 391.34 ± 0.52 Å² and a collision cross section [11] of 415.52 ± 3.5 Å².

“GRGAPPPPPSR [_GR(Citrullination (R))GAPPPPPSR_]” showed a collision cross section [12] of 339.21 ± 1.2 Å².

Work on “SLFFGGKGAPLQR [_SLFFGGK(Methyl (K))GAPLQR_]” yielded a collision cross section [2] of 405.87 ± 0.92 Å² and a collision cross section [3] of 448.66 ± 4 Å².

With “DAIHFYNKSLAEHR [_DAIHFYNK(Crotonyl)SLAEHR_]” the collision cross section (charge state: 3, modification: Crotonyl) was 509.89 ± 2 Å².

With “GADFLVTEVENGGSLGSKK [_GADFLVTEVENGGSLGSK(Malonyl)K_]” the collision cross section [13] was 475.75 ± 0.97 Å².

“LEEVTGKLQVAR [_LEEVTGK(Methyl (K))LQVAR_]” gave a collision cross section [2] of 393.19 ± 1.7 Å² and a collision cross section [3] of 474.94 ± 3.5 Å².

TLDEILQEKK [_TLDEILQEK(Succinyl)K_] showed a collision cross section [14] of 382.2 ± 5.9 Å².

“ANLEKAQAELVGTADEATR [_ANLEK(Acetyl (K))AQAELVGTADEATR_]” gave a collision cross section [15] of 471.91 ± 3.1 Å² and a collision cross section [8] of 570.31 ± 0.74 Å².

Sequence VNIGQGSHPQKVK [_VNIGQGSHPQK(Formyl)VK_] has a collision cross section [16] of 425.2 ± 1.4 Å² and a collision cross section [17] of 472.74 ± 2.1 Å².

Work on “GGNFGGRGGYGGGGGGSR [_GGNFGGR(Citrullination (R))GGYGGGGGGSR_]” yielded a collision cross section [12] of 392.17 ± 1 Å² and a collision cross section (charge state: 3, modification: Citrullination (R)) of 481.82 Å².

For LEQVEKELLR [_LEQVEK(Formyl)ELLR_], the collision cross section [16] was 382.29 ± 0.41 Å².

“ITLSKHQNVQLPR [_ITLSK(Butyryl)HQNVQLPR_]” showed a collision cross section [4] of 443.37 ± 0.53 Å² and a collision cross section [1] of 503.02 ± 28 Å².

“VQGGALEDSQLVAGVAFKK [_VQGGALEDSQLVAGVAFK(GlyGly (K))K_]” gave a collision cross section [18] of 504.45 ± 0.061 Å² and a collision cross section [19] of 565.73 ± 1.7 Å².

“TTEETSKPK [_TTEETSK(hydroxyisobutyryl)PK_]” showed a collision cross section [5] of 347.15 ± 3.9 Å².

With ASAISIKLGSSK [_ASAISIK(Biotin)LGSSK_] the collision cross section [20] was 410.18 ± 1.1 Å².

For “ANLEKAQAELVGTADEATR [_ANLEK(Biotin)AQAELVGTADEATR_]”, the collision cross section [20] was 492.92 Å².

Sequence “YEQEHAAIQDKLFQVAK [_YEQEHAAIQDK(hydroxyisobutyryl)LFQVAK_]” has a collision cross section (charge state: 3, modification: hydroxyisobutyryl) of 519.87 ± 2 Å².

“YADLTEDQLPSCESLK [_Y(Phospho (Y))ADLTEDQLPSCESLK_]” showed a collision cross section [9] of 458.87 Å².

Work on “SLKLNTAEDAK [_SLK(hydroxyisobutyryl)LNTAEDAK_]” yielded a collision cross section [5] of 378.64 ± 0.28 Å².

Sequence “SITHSTVGSKGEK [_SITHSTVGSK(Acetyl (K))GEK_]” has a collision cross section [15] of 391.66 ± 1.8 Å² and a collision cross section [8] of 440.5 ± 4 Å².

In the case of VYSGHQGR [_VY(Nitro (Y))SGHQGR_], the collision cross section [21] is reported as 327.94 ± 0.59 Å² and the collision cross section (charge state: 3, modification: Nitro (Y)) is reported as 418.62 ± 1.2 Å².

With “LGPPGNPGPSGSPGPK [_LGPPGNP(Hydroxyproline)GPSGSPGPK_]” the collision cross section [22] was 386.54 ± 0.27 Å² and the collision cross section [23] was 431.89 Å².

Work on ITGKNQVTATK [_ITGK(Formyl)NQVTATK_] yielded a collision cross section [16] of 360.79 ± 0.79 Å².

ISALQGKLSK [_ISALQGK(Formyl)LSK_] gave a collision cross section [16] of 348.45 ± 1 Å².

With “GEPGQGLRGLQGPPGK [_GEPGQGLRGLQGPP(Hydroxyproline)GK_]” the collision cross section [22] was 408.26 ± 1.5 Å² and the collision cross section [23] was 445.73 ± 1.3 Å².

TEVLSPNSKVESK [_TEVLSPNSK(Formyl)VESK_] showed a collision cross section [16] of 404.6 ± 5.2 Å² and a collision cross section [17] of 443.86 ± 4.1 Å².

Work on ASEALLKQLK [_ASEALLK(Acetyl (K))QLK_] yielded a collision cross section [15] of 373.11 ± 0.4 Å².

Sequence TLDEILQEKK [_TLDEILQEK(Methyl (K))K_] has a collision cross section [2] of 377.9 ± 1.7 Å² and a collision cross section [3] of 432.26 ± 5.2 Å².

Sequence “DKALPLEAEVAPVK [_DK(Biotin)ALPLEAEVAPVK_]” has a collision cross section [20] of 435.06 Å².

Sequence “KDYQPGITFIVVQK [_KDYQP(Hydroxyproline)GITFIVVQK_]” has a collision cross section [23] of 502.4 Å².

“SGNLTEDDKHNNAK [_SGNLTEDDK(Formyl)HNNAK_]” gave a collision cross section [16] of 415.1 ± 1.8 Å² and a collision cross section [17] of 466.8 ± 1.3 Å².

Work on KFGVLSDNFK [_K(Malonyl)FGVLSDNFK_] yielded a collision cross section [13] of 373.81 ± 0.63 Å².

For “DLSTVEALQNLKNLK [_DLSTVEALQNLK(Succinyl)NLK_]”, the collision cross section [14] was 483.86 ± 0.78 Å² and the collision cross section [24] was 537.21 Å².

Sequence TYVQDILR [_TY(Nitro (Y))VQDILR_] has a collision cross section [21] of 350.96 ± 0.47 Å².

Work on “SLGEPAAGEGSAKR [_SLGEPAAGEGSAK(Succinyl)R_]” yielded a collision cross section [14] of 381.88 ± 0.8 Å² and a collision cross section [24] of 476.57 ± 0.7 Å².

For “PANEKATDDYHYEK [_PANEK(Gluratylation)ATDDYHYEK_]”, the collision cross section [10] was 448.09 ± 1.5 Å² and the collision cross section [11] was 511.51 ± 1 Å².

Sequence “AAYQAAIRGVGSAQSR [_AAYQAAIR(Methyl (R))GVGSAQSR_]” has a collision cross section [25] of 442.78 ± 1 Å² and a collision cross section [26] of 510.48 ± 1.7 Å².

In the case of “LGVATVAKGVCGACK [_LGVATVAK(Butyryl)GVCGACK_]”, the collision cross section [4] is reported as 418.39 ± 0.77 Å² and the collision cross section [1] is reported as 491.64 Å².

In the case of “DASTLQSQKAEGTGDAK [_DASTLQSQK(GlyGly (K))AEGTGDAK_]”, the collision cross section [18] is reported as 451.81 ± 1.4 Å² and the collision cross section [19] is reported as 505.67 ± 1.1 Å².

“GLPGLAGDHGEFGEK [_GLP(Hydroxyproline)GLAGDHGEFGEK_]” showed a collision cross section [22] of 432.14 ± 0.34 Å² and a collision cross section [23] of 497.67 ± 1.7 Å².

Work on “AAQASDLEKIHLDEK [_AAQASDLEK(Propionyl)IHLDEK_]” yielded a collision cross section (charge state: 3, modification: Propionyl) of 496.94 Å².

For “GRGLPGPAESLR [_GR(Citrullination (R))GLPGPAESLR_]”, the collision cross section [12] was 366.62 ± 0.53 Å².

In the case of “VGVEVPDVNIEGPEGKLK [_VGVEVPDVNIEGPEGK(Succinyl)LK_]”, the collision cross section [14] is reported as 461.15 ± 2.6 Å² and the collision cross section [24] is reported as 499.18 Å².

In the case of “SLGEPAAGEGSAKR [_SLGEPAAGEGSAK(Malonyl)R_]”, the collision cross section [13] is reported as 366.04 ± 1.1 Å².

In the case of LGILPVGRGK [_LGILPVGR(Methyl (R))GK_], the collision cross section [25] is reported as 355.35 ± 1.4 Å² and the collision cross section [26] is reported as 437.92 Å².

Sequence “LQEKVESAQSEQK [_LQEK(Gluratylation)VESAQSEQK_]” has a collision cross section [10] of 421.97 ± 0.48 Å² and a collision cross section [11] of 507.02 ± 1 Å².

“IVSGKDYNVTANSK [_IVSGK(Propionyl)DYNVTANSK_]” gave a collision cross section (charge state: 2, modification: Propionyl) of 411.4 ± 0.64 Å².

Sequence “VLDSGAPIKIPVGPETLGR [_VLDSGAPIK(Succinyl)IPVGPETLGR_]” has a collision cross section [14] of 470.32 ± 0.95 Å².

For ITASLCDLKSR [_ITASLCDLK(Formyl)SR_], the collision cross section [16] was 378.38 Å².

For ITGKNQVTATK [_ITGK(Malonyl)NQVTATK_], the collision cross section [13] was 362.15 ± 0.018 Å².

In the case of “VDIDAPDVSIEGPDAKLK [_VDIDAPDVSIEGPDAK(hydroxyisobutyryl)LK_]”, the collision cross section [5] is reported as 475 ± 0.81 Å².

In the case of DHLSDKESK [_DHLSDK(Butyryl)ESK_], the collision cross section [4] is reported as 355.58 ± 0.7 Å².

Work on “SLKLNTAEDAK [_SLK(Dimethyl (K))LNTAEDAK_]” yielded a collision cross section [6] of 369.7 ± 0.36 Å² and a collision cross section [7] of 468.91 ± 1.6 Å².

“VQGGALEDSQLVAGVAFKK [_VQGGALEDSQLVAGVAFK(Gluratylation)K_]” showed a collision cross section [10] of 484.97 ± 2 Å² and a collision cross section [11] of 564.26 Å².

In the case of “GGPGSTLSFVGKR [_GGPGSTLSFVGK(Trimethyl (K))R_]”, the collision cross section [27] is reported as 401.16 Å² and the collision cross section [28] is reported as 424.62 ± 2.4 Å².

“VGIDTPDIDIHGPEGKLK [_VGIDTPDIDIHGPEGK(Succinyl)LK_]” showed a collision cross section [14] of 494.78 Å² and a collision cross section [24] of 540.29 ± 1.1 Å².

Sequence “TLQKQSVVYGGK [_TLQK(Trimethyl (K))QSVVYGGK_]” has a collision cross section [27] of 405 ± 1.6 Å² and a collision cross section [28] of 449.39 ± 2.4 Å².

For VETTVTSLKTK [_VETTVTSLK(GlyGly (K))TK_], the collision cross section [18] was 391.21 ± 2 Å² and the collision cross section [19] was 459.77 ± 2 Å².

For DVNAAIAAIKTK [_DVNAAIAAIK(Succinyl)TK_], the collision cross section [14] was 407.52 ± 0.54 Å² and the collision cross section [24] was 461.32 Å².
